Measurements taken from US20180327500A1 (SYMPHOGEN A S, published 2018).

Columns and labels:
Test in all cases: flow cytometry on transfected HEK293 cells;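 also: antibodies applied at 50 µg/ml, binding called specific when fluorescence exceeds the mean signal on a negative control chicken or mouse MET construct plus four SD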
Mouse Blade 1-5 = target: T1, Mouse Blade 1-5
T1 construct: human/mouse chimera on transfected HEK293 cells; also called AA 25-430
Description: (§1) Cut-off values defined as the average fluorescence signal of all antibodies tested at 50 μg/ml to the negative control chicken or mouse MET construct+four standard deviations were employed to discriminate background binding from specific binding for the domain exchange or blade exchange constructs.
T1 MET ECD-SV5-GPI fusion: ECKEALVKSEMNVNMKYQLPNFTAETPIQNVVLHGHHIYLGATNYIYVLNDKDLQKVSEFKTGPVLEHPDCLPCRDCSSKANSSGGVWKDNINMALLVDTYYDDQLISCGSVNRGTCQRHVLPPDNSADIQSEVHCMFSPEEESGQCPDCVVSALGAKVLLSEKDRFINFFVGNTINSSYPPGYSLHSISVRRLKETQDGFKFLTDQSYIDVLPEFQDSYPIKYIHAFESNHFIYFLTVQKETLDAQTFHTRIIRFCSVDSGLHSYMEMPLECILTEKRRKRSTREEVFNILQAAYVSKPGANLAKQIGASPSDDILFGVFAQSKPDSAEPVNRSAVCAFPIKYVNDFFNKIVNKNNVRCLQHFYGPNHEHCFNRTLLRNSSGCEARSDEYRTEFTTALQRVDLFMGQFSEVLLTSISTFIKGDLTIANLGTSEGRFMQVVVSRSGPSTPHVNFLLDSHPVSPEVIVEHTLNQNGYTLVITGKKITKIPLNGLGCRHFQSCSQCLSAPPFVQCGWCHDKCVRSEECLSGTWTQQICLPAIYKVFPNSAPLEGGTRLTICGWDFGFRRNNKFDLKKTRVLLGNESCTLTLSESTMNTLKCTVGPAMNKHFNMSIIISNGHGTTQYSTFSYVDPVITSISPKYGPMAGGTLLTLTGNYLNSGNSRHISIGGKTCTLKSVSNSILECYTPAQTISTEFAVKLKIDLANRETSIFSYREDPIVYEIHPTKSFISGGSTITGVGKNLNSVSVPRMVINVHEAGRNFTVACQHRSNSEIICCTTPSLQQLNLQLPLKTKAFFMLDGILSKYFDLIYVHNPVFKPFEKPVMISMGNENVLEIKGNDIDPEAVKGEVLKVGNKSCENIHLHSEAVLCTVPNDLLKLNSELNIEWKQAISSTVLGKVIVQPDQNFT

Mouse blade 2 = target: T2, Mouse blade 2
T2 construct: human/mouse chimera on transfected HEK293 cells; also called Mouse blade 2-IPT4
Description: as §1
T2 MET ECD-SV5-GPI fusion: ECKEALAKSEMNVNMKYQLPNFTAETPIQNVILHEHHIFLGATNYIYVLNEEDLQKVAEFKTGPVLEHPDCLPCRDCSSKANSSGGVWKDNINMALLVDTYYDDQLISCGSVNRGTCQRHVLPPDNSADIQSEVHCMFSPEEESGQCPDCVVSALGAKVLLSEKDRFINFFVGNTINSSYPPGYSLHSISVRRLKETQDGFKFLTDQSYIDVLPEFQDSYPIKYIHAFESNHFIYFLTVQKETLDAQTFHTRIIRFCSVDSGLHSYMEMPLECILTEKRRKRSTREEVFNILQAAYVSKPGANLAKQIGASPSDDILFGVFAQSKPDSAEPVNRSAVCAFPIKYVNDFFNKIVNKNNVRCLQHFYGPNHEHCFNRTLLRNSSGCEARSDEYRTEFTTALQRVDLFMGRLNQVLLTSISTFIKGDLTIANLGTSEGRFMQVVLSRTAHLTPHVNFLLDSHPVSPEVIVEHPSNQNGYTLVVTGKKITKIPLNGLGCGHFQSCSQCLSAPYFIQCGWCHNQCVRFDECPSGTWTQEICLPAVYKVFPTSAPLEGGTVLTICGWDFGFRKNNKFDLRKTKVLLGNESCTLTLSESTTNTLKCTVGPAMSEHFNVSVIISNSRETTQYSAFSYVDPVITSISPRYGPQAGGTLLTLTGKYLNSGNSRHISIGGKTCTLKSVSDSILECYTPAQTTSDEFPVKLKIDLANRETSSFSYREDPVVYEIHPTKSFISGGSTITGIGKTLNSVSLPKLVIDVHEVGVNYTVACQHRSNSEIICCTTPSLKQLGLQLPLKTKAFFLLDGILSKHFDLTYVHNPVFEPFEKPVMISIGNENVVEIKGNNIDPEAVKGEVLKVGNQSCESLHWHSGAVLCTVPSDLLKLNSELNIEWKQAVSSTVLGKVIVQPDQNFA

LS2 = target: T3, LS2
T3 construct: human/mouse chimera on transfected HEK293 cells
Description: as §1
T3 MET ECD-SV5-GPI fusion: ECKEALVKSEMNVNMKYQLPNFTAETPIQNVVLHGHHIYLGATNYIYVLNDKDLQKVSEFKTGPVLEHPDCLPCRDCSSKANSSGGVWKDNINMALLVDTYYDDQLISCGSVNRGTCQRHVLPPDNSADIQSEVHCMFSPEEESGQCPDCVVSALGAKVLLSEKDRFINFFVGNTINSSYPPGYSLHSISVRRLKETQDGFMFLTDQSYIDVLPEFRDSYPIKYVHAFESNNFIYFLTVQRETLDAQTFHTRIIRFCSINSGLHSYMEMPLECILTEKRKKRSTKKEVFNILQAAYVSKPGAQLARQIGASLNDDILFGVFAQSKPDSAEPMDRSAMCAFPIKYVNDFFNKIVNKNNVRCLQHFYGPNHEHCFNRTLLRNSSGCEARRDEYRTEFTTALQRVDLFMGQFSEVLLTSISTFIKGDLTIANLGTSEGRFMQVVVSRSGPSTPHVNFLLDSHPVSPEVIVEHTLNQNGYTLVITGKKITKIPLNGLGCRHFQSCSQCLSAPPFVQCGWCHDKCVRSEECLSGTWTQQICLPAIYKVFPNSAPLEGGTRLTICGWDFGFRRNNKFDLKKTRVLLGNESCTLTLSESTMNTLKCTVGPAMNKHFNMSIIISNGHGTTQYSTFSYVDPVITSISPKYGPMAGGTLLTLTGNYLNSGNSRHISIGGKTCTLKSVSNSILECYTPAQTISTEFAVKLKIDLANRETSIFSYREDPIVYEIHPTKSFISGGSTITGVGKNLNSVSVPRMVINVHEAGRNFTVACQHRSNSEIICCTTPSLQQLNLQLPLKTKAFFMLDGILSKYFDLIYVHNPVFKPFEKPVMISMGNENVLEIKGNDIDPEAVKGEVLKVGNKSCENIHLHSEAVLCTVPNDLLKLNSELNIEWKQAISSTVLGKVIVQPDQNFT

Measured: binding result

B1: humanized antibody 9006 (antibody, human IgG1, kappa, V domains shown)
VH: QVQLVQSGSELKKPGASVKVSCKASGYTFTNFRMNWVKQAPGQGLKWMGWINTYTGEPTYVDDLKGRFVFSLDTSVSTAYLQISSLKAEDTAVYYCARKGIARAMDYWGQGTTVTVSS
VL: DIVMTQSPDSLAVSLGERATINCKSSQSLLDSGNQKNYLAWYQQKPGQPPKLLIFGASTRESGVPDRFSGSGSGTDFTLTISSLQAEDVAVYYCQNDHSYPYTFGQGTKLEIKR
notes: also called Hu9006; hu9006
no binding (tested: 50 µg/ml): all assays above

B2: humanized antibody 9338 (antibody, human IgG1, kappa, V domains shown)
VH: QVQLVQSGAEVKKPGSSVKVSCKASGYTFTSYWMHWVRQAPGQGLEWMGYINPSSGHIENNQKFKDRVTITADKSTSTAYMELSSLRSEDTAVYYCARGRFAYWGQGTLVTVSS
VL: EIVLTQSPATLSLSPGERATLSCSASSSVSSGYLYWYQQKPGQAPRLLIYSTSNLASGIPARFSGSGSGTDFTLTISSLEPEDFAVYYCHQWSSYPFTFGSGTKLEIKR
notes: also called Hu9338; hu9338
no binding (tested: 50 µg/ml): all assays above
